From article PMC3491057, “Proliferating Cell Nuclear Antigen (PCNA) Interactions in Solution Studied by NMR” (PLoS ONE, 2012)
No end group written: not given here.

What was measured:
Conditions in all cases: both partners purified
[1] = target: T1, Proliferating Cell Nuclear Antigen (PCNA), human (human, homotrimeric ring; GlySerHis tag remnant before Met1 left out; 2H/15N(/13C) labelled for NMR, natural abundance for ITC); assay: ITC; PCNA (11.2–13.4 µM protomers) in the cell titrated with peptide (117 µM p21^20, 363 p21^12); PBS pH 7.0, 30°C; single set of identical sites
T1 sequence (chain, as listed by the source): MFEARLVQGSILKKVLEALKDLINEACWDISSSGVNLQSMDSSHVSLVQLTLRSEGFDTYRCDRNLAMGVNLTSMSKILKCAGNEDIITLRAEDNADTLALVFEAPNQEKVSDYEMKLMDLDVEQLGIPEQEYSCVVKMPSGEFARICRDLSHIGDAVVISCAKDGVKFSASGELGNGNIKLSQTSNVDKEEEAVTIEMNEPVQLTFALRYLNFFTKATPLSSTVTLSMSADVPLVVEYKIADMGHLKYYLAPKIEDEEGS

[2] = target: T1, Proliferating Cell Nuclear Antigen …; assay: ITC; PCNA (11.2–13.4 µM protomers) in the cell titrated with peptide (117 µM p21^20, 363 p21^12); PBS pH 7.0, 35°C; single set of identical sites
[3] = target: Proliferating Cell Nuclear Antigen (PCNA), human (human); assay: NMR titration; 280 µM U-2H,15N-PCNA titrated with a 7.5 mM stock of ING1^22 up to a 7.8-fold molar excess; CSP of H44 fitted to one set of sites; PBS pH 7.0, 35°C
Sequence of Proliferating Cell Nuclear Antigen (PCNA), human (human) (chain, as listed by the source): as above

Row | Kd [1] [µM] | stoichiometry N [1] | Kd [2] [µM] | KD with CSPmax set equal to the CSP of PCNA bound to p21^20 [3] [µM] | Kd [3] [µM] | Binder
1 | 0.64 | 1 p21 ligand per PCNA protomer | 1.1 |  |  | KRRQTSMTDFYH (source: lyophilized peptide) [p21 fragment 141-152 (p21^12), shorter PIP-box peptide of the Cyclin-dependent kinase inhibitor 1]
2 |  |  |  | 12500 ± 500 | 2000 ± 700 | PANGEQLHLVNYVEDTLDSIES (not fully specified) [ING1 PIP-box fragment 4-25 (ING1^22)]
